Source: the supplement of paper PMC12855868

B1: library; numbered along this chain (parent)
chain: MAAAGGARLLRAASAVLGGPAGRWLHHAGSRAGSSGLLRNRGPGGSAEASRSLSVSARARSSSEDKITVHFINRDGETLTTKGKVGDSLLDVVVENNLDIDGFGACEGTLACSTCHLIFEDHIYEKLDAITDEENDMLDLAYGLTDRSRLGCQICLTKSMDNMTVRVPETVADARQSIDVGKTS

Variants of: B1
Experiment: scaled log2 fold change in cell abundance, elesclomol vs control (0 = silent mean, 1 = nonsense mean) (scaled log2 ratio); higher = higher viability under elesclomol (loss of FDX1 cuproptosis function)
Conditions: glucose 10 mM
[1] = with ABC1 FDX1 KO, elesclomol 5 nM, 14 days
[2] = with HEK293T FDX1 KO, elesclomol 40 nM, 11 days
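Also: variant abundance is its share of total variant reads in each endpoint sample, from next-generation sequencing of the integrated ORF PCR-amplified out of genomic DNA.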

| Variant | scaled log2 fold change [1] | scaled log2 fold change [2] |
| --- | --- | --- |
| MAAAGGARLLRAASAVLGGPAGRWLHHAGSRAGSSGLLRNRGPGGSAEASRSLSVSARARSSSEDKITVHFINRDGETLTTKGKVGDSLLDVVVENNLDIDGFGACEGTLACSTCHLIFEDHIYEKLDAITDEENDMLDLAYGLTDRSRLGCQICLTKSMSNMTVRVPETVADARQSIDVGKTS | 0.299 | -0.0997 |
| MAAAGGARLLRAASAVLGGPAGRWLHHAGSRAGSSGLLRNRGPGGSAEASRSLSVSARARSSSEDKITVHFINRDGETLTTKGKVGDSLLDVVVENNLDIDGFGACEGTLACSTCHLIFEDHIYEKLDAITDEENDMLDLAYGLTDRSRLGCQICLTKSMYNMTVRVPETVADARQSIDVGKTS | 0.284 | 0.145 |
| MAAAGGARLLRAASAVLGGPAGRWLHHAGSRAGSSGLLRNRGPGGSAEASRSLSVSARARSSSEDKITVHFINRDGETLTTKGKVGDSLLDVVVENNLDIDGFGACEGTLACSTCHLIFEDHIYEKLDAITDEENDMLDLAYGLTDRSRLGCQICLTKSMPNMTVRVPETVADARQSIDVGKTS | 0.586 | 0.0492 |
| MAAAGGARLLRAASAVLGGPAGRWLHHAGSRAGSSGLLRNRGPGGSAEASRSLSVSARARSSSEDKITVHFINRDGETLTTKGKVGDSLLDVVVENNLDIDGFGACEGTLACSTCHLIFEDHIYEKLDAITDEENDMLDLAYGLTDRSRLGCQICLTKSMRNMTVRVPETVADARQSIDVGKTS | 0.243 | 0.406 |
| MAAAGGARLLRAASAVLGGPAGRWLHHAGSRAGSSGLLRNRGPGGSAEASRSLSVSARARSSSEDKITVHFINRDGETLTTKGKVGDSLLDVVVENNLDIDGFGACEGTLACSTCHLIFEDHIYEKLDAITDEENDMLDLAYGLTDRSRLGCQICLTKSMWNMTVRVPETVADARQSIDVGKTS | 0.197 | -0.0327 |
| MAAAGGARLLRAASAVLGGPAGRWLHHAGSRAGSSGLLRNRGPGGSAEASRSLSVSARARSSSEDKITVHFINRDGETLTTKGKVGDSLLDVVVENNLDIDGFGACEGTLACSTCHLIFEDHIYEKLDAITDEENDMLDLAYGLTDRSRLGCQICLTKSMVNMTVRVPETVADARQSIDVGKTS | -0.562 | 0.103 |
| MAAAGGARLLRAASAVLGGPAGRWLHHAGSRAGSSGLLRNRGPGGSAEASRSLSVSARARSSSEDKITVHFINRDGETLTTKGKVGDSLLDVVVENNLDIDGFGACEGTLACSTCHLIFEDHIYEKLDAITDEENDMLDLAYGLTDRSRLGCQICLTKSMTNMTVRVPETVADARQSIDVGKTS | 0.262 | -0.0378 |
| MAAAGGARLLRAASAVLGGPAGRWLHHAGSRAGSSGLLRNRGPGGSAEASRSLSVSARARSSSEDKITVHFINRDGETLTTKGKVGDSLLDVVVENNLDIDGFGACEGTLACSTCHLIFEDHIYEKLDAITDEENDMLDLAYGLTDRSRLGCQICLTKSMQNMTVRVPETVADARQSIDVGKTS | 0.0687 | – |
| MAAAGGARLLRAASAVLGGPAGRWLHHAGSRAGSSGLLRNRGPGGSAEASRSLSVSARARSSSEDKITVHFINRDGETLTTKGKVGDSLLDVVVENNLDIDGFGACEGTLACSTCHLIFEDHIYEKLDAITDEENDMLDLAYGLTDRSRLGCQICLTKSMNNMTVRVPETVADARQSIDVGKTS | 0.064 | -0.539 |
